This note sets out measurements from PMC10175819.

In experiment [1] the target is RHT1-GRAS (truncated DELLA protein carrying only the C-terminal GRAS domain), yeast hybrid fusion (wheat). Briefly: yeast three-hybrid; quantitative alpha-gal Y3H assay; BD and AD fusions with a third protein expressed or not expressed; n = 12.
The target of experiment [2] is GROWTH-REGULATING FACTOR 4 (GRF4), yeast hybrid fusion (wheat). The description is as above.

Turning to “GROWTH-REGULATING FACTOR 4 (GRF4), yeast hybrid fusion (natural protein)”, the percent reduction of the PLATZ1-DELLA interaction with GRF4 as the third protein in experiment [1] is 74%.
On to “RHT1-GRAS (truncated DELLA protein carrying only the C-terminal GRAS domain), yeast hybrid fusion (domain or fragment)”, for which, in experiment [2], the fold stronger interaction than between PLATZ and DELLA was greater than 20 fold.
